Patent US20120058906A1 (published 2012)
Values belong to the binder of their own block, whether it stands above or below them.

How the values were obtained:
[1] = target: T1, rHuman Erythropoietin R/Fc Chimera, CF (R&D Systems Cat#963-ER) (human, UniProt P19235 25-250); test: ECL (MSD multi-spot), antigen on plate, Fab 2 nM
T1 construct: Bought Fc chimera; also called EPO R/Fc; Epo R; not shown: Fc of the bought chimera
T1 sequence: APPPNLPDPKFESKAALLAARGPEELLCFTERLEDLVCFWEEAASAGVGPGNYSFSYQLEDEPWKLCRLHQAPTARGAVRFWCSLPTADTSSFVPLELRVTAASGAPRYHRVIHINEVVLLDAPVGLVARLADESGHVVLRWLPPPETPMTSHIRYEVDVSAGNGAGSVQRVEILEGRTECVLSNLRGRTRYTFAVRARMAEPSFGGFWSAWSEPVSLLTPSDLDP

[2] = target: T2, rHuman HGF R/c-MET/Fc Chimera, CF (R&D Systems Cat#358-MT/CF) (human, UniProt P08581 25-932); test: ECL (MSD multi-spot), antigen on plate, Fab 2 nM
T2 construct: Bought Fc chimera; also called HGF R/Fc; not shown: Fc of the bought chimera

[3] = target: T3, rHuman ErbB2/Fc Chimera, CF (R&D Systems Cat#1129-ER) (human, UniProt P04626 23-652); test: ECL (MSD multi-spot), antigen on plate, Fab 2 nM
T3 construct: Bought Fc chimera; also called HER2/neu; not shown: Fc of the bought chimera

[4] = target: T4, rHuman Notch-1/Fc Chimera, CF (R&D Systems Cat#3647-TK) (human, UniProt P46531 19-526); test: ECL (MSD multi-spot), antigen on plate, Fab 2 nM
T4 construct: Bought Fc chimera; not shown: Fc of the bought chimera

[5] = target: T5, rHuman IGF-1 sR (insulin-like growth factor-1 soluble receptor), CF (R&D Systems Cat#391-GR) (human, UniProt P08069 31-932); test: ECL (MSD multi-spot), antigen on plate, Fab 2 nM
T5 construct: Bought soluble receptor; also called IGF-R1

[6] = target: T6, rHuman CD44/Fc Chimera, CF (R&D Systems Cat#3660-CD) (human, UniProt P16070 21-220); test: ECL (MSD multi-spot), antigen on plate, Fab 2 nM
T6 construct: Bought Fc chimera; not shown: Fc of the bought chimera

[7] = target: T7, rHuman EGF R/Fc Chimera, CF (R&D Systems Cat#344-ER) (human, UniProt P00533 25-645); test: ECL (MSD multi-spot), antigen on plate, Fab 2 nM
T7 construct: Bought Fc chimera; also called ErbB-1; not shown: Fc of the bought chimera

[8] = target: T8, Recombinant Human DLL4 (R&D Systems Cat#1506-D4/CF) (human, UniProt Q9NR61 27-524); test: ECL (MSD multi-spot), antigen on plate, Fab 2 nM
T8 construct: Bought recombinant protein; also called delta-like protein 4

[9] = target: T9, rHuman P-Cadherin/Fc Chimera, CF (R&D Systems Cat#861-PC) (human, UniProt P22223 108-654); test: ECL (MSD multi-spot), antigen on plate, Fab 2 nM
T9 construct: Bought Fc chimera; also called CDH3; not shown: Fc of the bought chimera

[10] = target: T6, rHuman CD44/Fc Chimera, CF (R&D Systems …); test: ECL (MSD multi-spot), antigen on plate, Fab 10 nM
[11] = target: T10, rHuman HGF R/c-MET/Fc Chimera, CF (R&D Systems Cat#358-MT/CF) (human, UniProt P08581 25-932); test: MSD ECL multi-spot plate, antigen immobilized; Fab 200 nM; blank spot 588
T10 construct: Purchased Fc chimera; also called HGF R/Fc; not shown: Fc portion of the purchased chimera

[12] = target: T11, rHuman EGF R/Fc Chimera, CF (R&D Systems Cat#344-ER) (human, UniProt P00533 25-645); test: as above
T11 construct: Purchased Fc chimera; not shown: Fc portion of the purchased chimera

[13] = target: T12, Recombinant Human DLL4 (R&D Systems Cat#1506-D4/CF) (human, UniProt Q9NR61 27-524); test: as above
T12 construct: Purchased recombinant protein; also called delta-like protein 4

[14] = target: T13, rHuman Erythropoietin R/Fc Chimera, CF (R&D Systems Cat#963-ER) (human, UniProt P19235 25-250); test: as above
T13 construct: Purchased Fc chimera; also called EPO R/Fc; Epo R; not shown: Fc portion of the purchased chimera
T13 sequence: T1 sequence

[15] = target: T14, rHuman Notch-1/Fc Chimera, CF (R&D Systems Cat#3647-TK) (human, UniProt P46531 19-526); test: ECL (MSD Multi-Spot) binding assay, antigen spotted on plate; Fab 7.5 nM; blank spot 217
T14 construct: Bought Fc chimera; Fc part of the bought chimera not given

[16] = target: T15, rHuman P-Cadherin/Fc Chimera, CF (R&D Systems Cat#861-PC) (human, UniProt P22223 108-654); test: as above
T15 construct: Bought Fc chimera; also called CDH3; Fc part of the bought chimera not given

[17] = target: T16, Recombinant Human DLL4 (R&D Systems Cat#1506-D4/CF) (human, UniProt Q9NR61 27-524); test: as above
T16 construct: Bought recombinant protein; also called delta-like protein 4; rHuman DLL4

[18] = target: T17, rHuman CD44/Fc Chimera, CF (R&D Systems Cat#3660-CD) (human, UniProt P16070 21-220); test: as above
T17 construct: Bought Fc chimera; Fc part of the bought chimera not given

[19] = target: T18, rHuman Erythropoietin R/Fc Chimera, CF (R&D Systems Cat#963-ER) (human, UniProt P19235 25-250); test: as above
T18 construct: Bought Fc chimera; also called EPO R/Fc; Epo R; Fc part of the bought chimera not given
T18 sequence: T1 sequence
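Further: blank spot per well as comparator with Hit at signal to blank ratio of 4 or more.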

ECL signal [1]: 294 ECL signal
ECL signal [2]: 207 ECL signal
ECL signal [3]: 138 ECL signal
ECL signal [4]: 274 ECL signal
ECL signal [5]: 296 ECL signal
ECL signal [6]: 209 ECL signal
ECL signal [7]: 171 ECL signal
ECL signal [8]: 11400 ECL signal
ECL signal [9]: 395 ECL signal
ECL signal [10]: 286 ECL signal
B1: Fab VH1-46_IGHD6-6*01_IGHJ1*01_S102A_S103P_S104F & L6_IGKJ1*01_S30N (Fab, V domains shown)
VH: QVQLVQSGAEVKKPGASVKVSCKASGYTFTSYYMHWVRQAPGQGLEWMGIINPSGGSTSYAQKFQGRVTMTRDTSTSTVYMELSSLRSEDTAVYYCAREEYAPFSAEYFQHWGQGTLVTVSS
VL: EIVLTQSPATLSLSPGERATLSCRASQSVNSYLAWYQQKPGQAPRLLIYDASNRATGIPARFSGSGSGTDFTLTISSLEPEDFAVYYCQQRSNWPPWTFGQGTKVEIKR
notes: Fab

ECL signal [11]: 1430 ECL signal
ECL signal [12]: 1370 ECL signal
ECL signal [13]: 45400 ECL signal
ECL signal [14]: 1230 ECL signal
B2: Fab VH5-51_IGHD5-18*01>3_IGHJ4*01_G100K & V3-4_IGLJ1*01 (Fab, V domains shown)
VH: EVQLVQSGAEVKKPGESLKISCKGSGYSFTSYWIGWVRQMPGKGLEWMGIIYPGDSDTRYSPSFQGQVTISADKSISTAYLQWSSLKASDTAMYYCARRKYSYGYDYFDYWGQGTLVTVSS
VL: QTVVTQEPSFSVSPGGTVTLTCGLSSGSVSTSYYPSWYQQTPGQAPRTLIYSTNTRSSGVPDRFSGSILGNKAALTITGAQADDESDYYCVLYMGSGISYVFGTGTKVTVL
notes: It was expressed as a Fab: CH1 with tags from Plasmid A and lambda CL from Plasmid E; also called Fab No. 22

ECL signal [15]: 392
ECL signal [16]: 352
ECL signal [17]: 598
ECL signal [18]: 444
ECL signal [19]: 443
B3: Fab VH6-1_IGHD3-3*01_IGHJ4*01 & V4-3_IGLJ4*01 (Fab, V domains shown)
VH: QVQLQQSGPGLVKPSQTLSLTCAISGDSVSSNSAAWNWIRQSPSRGLEWLGRTYYRSKWYNDYAVSVKSRITINPDTSKNQFSLQLNSVTPEDTAVYYCAREYYDFWSGYYTDYFDYWGQGTLVTVSS
VL: QPVLTQPTSLSASPGASARLTCTLRSGINLGSYRIFWYQQKPESPPRYLLSYYSDSSKHQGSGVPSRFSGSKDASSNAGILVISGLQSEDEADYYCMIWHSSASFVFGGGTQLIIL
notes: Tested as a Fab made in E. coli; also called IGHV6-1*01
